Test system: MS2 coat protein
Assay: apparent KD of MS2 coat protein; designed switch direction (-1 OFF switch, 1 ON switch): 1; higher = weaker reporter binding
Summary of the method: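 SNAP-549-labelled MS2 coat protein was titrated, doubling from 0.7 or 1.5 nM to 3 µM, over designed RNA switches transcribed on Illumina chips by stalled E. coli RNA polymerase. Runs were done without input, with 200 uM small-molecule ligand, or with an oligonucleotide input. Apparent KD is the per-design median over clusters of curve-fitted normalised fluorescence.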

[1] = input ligand: microRNA oligo, concentration not stated
[2] = Eterna round: R95, input ligand: FMN 200 uM
[3] = Eterna round: R95, input ligand: microRNA oligo, concentration not stated
[4] = Eterna round: R95, input ligand: none

Sequence | apparent KD of MS2 coat protein (input ligand: FMN 200 uM) | apparent KD of MS2 coat protein [1] | apparent KD of MS2 coat protein (input ligand: none) | apparent KD of MS2 coat protein [2] | apparent KD of MS2 coat protein [3] | apparent KD of MS2 coat protein [4]
AUUCUUAAUGCAGGAUAUGAUUAACAUGAGGAUCACCCAUGUGGUGUUGUGAGUAAGGAGAGUGAUCAGAAGGGCAUUUUUUUU [JMF's solution 32] (Eterna round: R96, puzzle: Same State NG 2) | 316 nM | 271 nM | 210 nM |  |  | 
AUAGUUUCCGAAGGAUAUGAUGAGGAUCACCCAUCAGAAGGUUGGCUAUUGGGCGGACAUGAGGAUCACCCAUGUCUUUCGGUU (Eterna round: R96, puzzle: Same State NG 1) | 84.7 nM | 76.8 nM | 101 nM |  |  | 
CUUUUUCCUUUUACAUGAGGAUCACCCAUGUUUUCAUAUUGAGAGGAUAUCGUAUUUGGAAUUUUCGAGAAGGCUCAUUUGUAU [JR_SSNG3_Sub075] (Eterna round: R96, puzzle: Same State NG 3) | 39.4 nM | 25.5 nM | 28.9 nM |  |  | 
AUUAAACAUGAGGAUCACCCAUGUCAACAAAGUCGAGGAUAUGGGCAAAUAAAAUAAGAACCAGAAGGCGAAUUAU [salish99_ss1_r3_079] (puzzle: Same State 1) |  |  |  | 32.6 nM | 337 nM | 312 nM
AUAAGUCCGAUGCUCGUCUCUCCGUACAAACAUGAGGAUCACCCAUGUGAUCGGGCAGUAGCCCGAUCAGUAUGGCC [Raedre] (puzzle: Sensor for hsa-mir-208a) |  |  |  | 51.5 nM | 23.9 nM | 56.4 nM
GGCCUGGGUCAAGGAUAUGCUACCGUUUCGGUAGCAGAAGGUGAUCACAUGAGGAUCACCCAUGUUUACGCGAAGACGCGCGCC (Eterna round: R96, puzzle: Same State NG 1) | 526 nM | 59.3 nM | 405 nM |  |  | 
UUAUCUCAGACAUGAGGAUCACCCAUGUGGUUAUGACUUAGACAGGAUAUAGUAGUAUCGAAAUACUAGAAGGGUCAUUUUAUU [JR_SSNG3_Sub021] (Eterna round: R96, puzzle: Same State NG 3) | 73.4 nM | 97.5 nM | 143 nM |  |  | 
ACUCUCACAGUAGGAUAUGUAGGAUAUGCCUACAUGAGGAUCACCCAUGUAAACAUGGCAGAAGGAUAGAAGGACUUACAUGGG [pwkr ssNG2 2FMN + 1F5.4] (Eterna round: R96, puzzle: Same State NG 2) | 108 nM | 44.1 nM | 196 nM |  |  | 
AUAAAACAUGAGGAUCACCCAUGUCAACAAAGUCGAGGAUAUGGGCAAAUAAAAUAAGAACCAGAAGGCGAAUAAG [salish99_SS1_r3_004] (puzzle: Same State 1) |  |  |  | 30.7 nM | 88 nM | 266 nM
GCUACAUGAGGAUCACCCAUGUGUGCGUGGGAGUGAGUGGCUUAGGAUAUCUAUGACUUGAGUUGAGAGAAGGAGGGUUGCUGU [SS-NG3-LRO13] (Eterna round: R96, puzzle: Same State NG 3) | 70.9 nM | 53.6 nM | 79.3 nM |  |  | 
UGGUACAUGGGAGGAUAUCUCAUGGAGACAUGAGGAUCACCCAUGUAGAUGGCCGGUAACCGGAGAGAGAAGGCCCAUGUACCU [JL SSNG1 3.67] (Eterna round: R96, puzzle: Same State NG 2) | 79.6 nM | 152 nM | 198 nM |  |  | 
